Laboratory results from patent publication US20250320284A1 (AC IMMUNE, published 2025).

T1: mouse ASC (mouse, UniProt Q9EPB4 1-193)
T1 construct: recombinant mASC in ELISA and SPR; endogenous ASC of J774.A1 cells in Western blot and immunofluorescence; also called mASC
T1 sequence: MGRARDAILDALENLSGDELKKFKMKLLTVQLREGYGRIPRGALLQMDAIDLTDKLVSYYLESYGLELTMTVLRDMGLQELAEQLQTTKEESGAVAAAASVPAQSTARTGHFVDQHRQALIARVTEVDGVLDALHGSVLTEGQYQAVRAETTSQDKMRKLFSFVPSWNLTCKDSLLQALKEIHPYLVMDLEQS

T2: CARD domain of human ASC (human, UniProt Q9ULZ3 107-195)
T2 construct: biotinylated in BLI; also called hCARD; human CARD
T2 sequence: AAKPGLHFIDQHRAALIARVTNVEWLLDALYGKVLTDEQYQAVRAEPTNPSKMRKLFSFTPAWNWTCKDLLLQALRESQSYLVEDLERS


How the values were obtained:
mouse ASC [1] = biological target: T1, mouse ASC; assay: ELISA, coated mASC; ELISA on mASC protein
[2] = biological target: T3, human ASC (apoptosis associated speck-like protein containing a caspase-recruitment domain) (human, UniProt Q9ULZ3 1-195); assay: cell-based or functional assay
CARD domain of human ASC [3] = biological target: T2, CARD domain of human ASC; assay: BLI binning on CARD, competitor 2504F3D9-Ab1
CARD domain of human ASC [4] = biological target: T2, CARD domain of human ASC; assay: BLI binning on CARD, competitor 32B6C7-Ab1
CARD domain of human ASC [5] = biological target: T2, CARD domain of human ASC; assay: BLI binning on CARD, competitor 2609F4A9-Ab1
CARD domain of human ASC [6] = biological target: T2, CARD domain of human ASC; assay: BLI binning on CARD, competitor 18F4C12-Ab1
[7] = biological target: T3, human ASC (apoptosis associated …); assay: cell-based or functional assay; remark: listed apart in the source
[8] = biological target: T3, human ASC (apoptosis associated …); assay: ELISA, coated hASC;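 further: antibody binding to plate-coated recombinant human ASC, read as phosphatase substrate absorbance, EC50 from four-parameter variable-slope fit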
mouse ASC [9] = biological target: T1, mouse ASC; assay: cell-based or functional assay
mouse ASC [10] = biological target: T1, mouse ASC; assay: SPR affinity mode, steady-state fit, apparent KD; SPR affinity mode, mAb captured, mASC in solution; steady-state fit, apparent KD
PYD domain of human ASC [11] = biological target: T4, PYD domain of human ASC (human, UniProt Q9ULZ3 1-91, limits assumed); assay: ELISA, coated hPYD;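 further: monoclonal antibody binding to plate-coated human ASC PYD measured by ELISA, with a phosphatase substrate absorbance read-out and EC50 from a variable slope curve fit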
T4 construct: biotinylated in BLI; His/MBP-tagged in the alanine ELISA; also called hPYD; human PYD
T4 sequence (Q9ULZ3 1-91 limits assumed): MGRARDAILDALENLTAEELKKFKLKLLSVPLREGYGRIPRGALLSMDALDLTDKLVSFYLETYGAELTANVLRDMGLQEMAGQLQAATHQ

CARD domain of human ASC [12] = biological target: T2, CARD domain of human ASC; assay: ELISA, coated hCARD
CARD domain of human ASC [13] = biological target: T2, CARD domain of human ASC; assay: BLI binning on CARD, competitor 2622E12F11-Ab1
CARD domain of human ASC [14] = biological target: T2, CARD domain of human ASC; assay: BLI binning on CARD, competitor 2629E8D1-Ab1
[15] = biological target: T3, human ASC (apoptosis associated …); assay: SPR affinity mode, mAb captured;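 further: Single-cycle SPR kinetics with mAbs captured on goat anti-mouse antibody, double-referenced against blank flow cell and buffer cycle, fitted by a 1:1 kinetic model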
PYD domain of human ASC [16] = biological target: T4, PYD domain of human ASC; assay: BLI binning on PYD, competitor 31F10C5-AB1
PYD domain of human ASC [17] = biological target: T4, PYD domain of human ASC; assay: BLI binning on PYD, competitor 416E6G4-AB1
mouse ASC [18] = biological target: T1, mouse ASC; assay: cell-based or functional assay; remark: listed apart in the source
PYD domain of human ASC [19] = biological target: T4, PYD domain of human ASC; assay: BLI binning on PYD, competitor 23E5F7-AB2
PYD domain of human ASC [20] = biological target: T4, PYD domain of human ASC; assay: BLI binning on PYD, competitor 2617C3A8-AB1
PYD domain of human ASC [21] = biological target: T4, PYD domain of human ASC; assay: BLI binning on PYD, competitor 2626B9D3-AB1
mouse ASC [22] = biological target: T1, mouse ASC; assay: ELISA, coated mASC
PYD domain of human ASC [23] = biological target: T4, PYD domain of human ASC; assay: BLI binning on PYD, competitor 22D3A6-AB1
PYD domain of human ASC [24] = biological target: T4, PYD domain of human ASC; assay: BLI binning on PYD, competitor 401H9B7-AB1
PYD domain of human ASC [25] = biological target: T4, PYD domain of human ASC; assay: BLI binning on PYD, competitor 2610H7D3-AB1
PYD domain of human ASC [26] = biological target: T4, PYD domain of human ASC; assay: BLI binning on PYD, competitor 26A1G2-AB1
mouse ASC [27] = biological target: T1, mouse ASC; assay: SPR affinity mode, mAb captured;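 further: Single-cycle SPR kinetics with mAbs captured on goat anti-mouse antibody, double-referenced against blank flow cell and buffer cycle, fitted by a 1:1 kinetic model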

Row | EC50 (mouse ASC [1]) [nM] | Human ASC polymerization assay, IC50 [2] [nM] | normalized binding response (CARD domain of human ASC [3]) [%] | normalized binding response (CARD domain of human ASC [4]) [%] | normalized binding response (CARD domain of human ASC [5]) [%] | normalized binding response (CARD domain of human ASC [6]) [%] | IL-1β release, human monocytic cell line, IC50 [7] [nM] | EC50 [8] [nM] | % IL-1β inhibition, mouse primary microglia, 420 nM mAb (mouse ASC [9]) [%] | Kd (mouse ASC [10]) [nM] | binding result (PYD domain of human ASC [11]) | EC50 (CARD domain of human ASC [12]) [nM] | normalized binding response (CARD domain of human ASC [13]) [%] | normalized binding response (CARD domain of human ASC [14]) [%] | Kd [15] [nM] | koff [15] [s⁻¹] | kon [15] [M⁻¹ s⁻¹] | Mouse ASC polymerization assay, IC50 (mouse ASC [18]) [nM] | Binder | further results
1 | 0.16 | 19.4 | -2 | 91 | 74 | 18 | 30.8 | 0.11 | 95.9 | 176 | no binding | 0.12 | 0 | 87 | 3.66 | 0.000786 | 235000 | – | ACI-8016-2622E12F11-AB1 (antibody, V domains shown) VH: RVQLQQAGAELVKPGASVKVSCKASGNTFNNYWIYWVKQRPGQGLEWIGRIHPSDSGTNYNQKFEGKATLTVDKSSGTAYMQLSSLTAEDSAVYYCALLSLYAMDSWGHGTSVTVSS VL: DIVLTQSPASLAVSLGQRATISCRASKSVSSFGYNYIHWYLQKPGQPPKLLIYLASDLESGVPARFSGSGSGTGFTLNIHPVEEEDAATYYCQHSREFPWTFGGGTKLEIK | –
2 | – | – | 0 | 21 | 17 | 76 | 16.7 | 0.19 | – | – | no binding | 0.13 | 19 | 20 | 8.3 | 0.000723 | 89300 | – | ACI-8016-2504F3D9-AB1 (antibody, V domains shown) VH: DVKLVESGEGLVKPGGSLKLSCAVSGFTFSNYAMSWVRQTPEKRLEWVAYISSGGDFIYYRDTVKGRFTISRDNARNTLYLQMSSLKSEDTAMYYCILQLRPEAWFAYWGQGTLVTVSA VL: DIKMTQSPSSMYASLGERVTITCKASQDIKNYLSWFQQIPGKSPKTLIYRANRLVDGVPSRFSGSGSGQDYSLTISSLEYEDMGIYYCLQYYEFPYTFGGGTKLEIK | –
3 | – | 6.3 | – | – | – | – | 33 | 0.24 | 90.5 | – | – | – | – | – | 0.16 | 0.000199 | 1.23e+06 | 34.8 | ACI-8016-31F10C5-AB1 (antibody, V domains shown, also called 936.31F10C5) VH: QVQLQQSEPELARPGASVKLSCTASGYTFINYGVSWVRQRTGQGLEWIGRIYPRSGNTRFNEKFQGKATLTADTSSSTAYMELRSLTSEDSAVYFCTRFPYAFSGNSYWYFDVWGTGTTVTVSS VL: DIVMTQSHKFMSTSIGDRVSITCKASQDVSAAVAWYQQKPGQSPKLLIYSSSFRYTGVPDRFTGSASGTDFTFTITTVQAEDLAVYYCQQHFDTPYTFGGGTKLEIK | normalized binding response (PYD domain of human ASC [16]): 1%; normalized binding response (PYD domain of human ASC [17]): 4%; normalized binding response (PYD domain of human ASC [19]): 2%; normalized binding response (PYD domain of human ASC [20]): 3%; normalized binding response (PYD domain of human ASC [21]): 49%; EC50 (mouse ASC [22]): 0.3 nM; normalized binding response (PYD domain of human ASC [23]): 3%; EC50 (PYD domain of human ASC [11]): 0.18 nM; normalized binding response (PYD domain of human ASC [24]): 79%; binding result (CARD domain of human ASC [12]): no binding; normalized binding response (PYD domain of human ASC [25]): 2%; normalized binding response (PYD domain of human ASC [26]): 0%; Kd (mouse ASC [27]): 0.36 nM; koff (mouse ASC [27]): 0.000314 s⁻¹; kon (mouse ASC [27]): 886000 M⁻¹ s⁻¹
4 | 0.38 | – | – | – | – | – | – | – | 52 | 34.4 | – | – | – | – | – | – | – | 27.3 | ACI-8016-2626B9D3-AB1 (antibody, V domains shown) VH: QVQLQQPGTELVKPGASVKLSCRASGWTHWVKQRPGQGLEWIGNINLSNGRTNYNEKFRAMATLTVDKSSSTAYTQLSSLTSEDSAVYYCANSMVPHFFPMDYWGQGTSVTVSS VL: NIVMTQYPKSMSLSIGERVTLRCKASENVGSYVSWYQQKPEQSPKLLIYGASNRYTGVPDRFTGSGSATDFILTITSVQAEDLADYHCGQSYNYPLTFGAGTKLELK | –
5 | 0.3 | 32.8 | 0 | 7 | 0 | 96 | 16.2 | 0.12 | 82.3 | 168 | no binding | 0.11 | 103 | 0 | 24.9 | 0.00783 | 297000 | – | ACI-8016-2609F4A9-AB1 (antibody, V domains shown) VH: QVQLQQSDAELVKPGASVKISCKVSGYALTDHSIHWMKQRPEQGLAWIGYMYPGDGSANYNDKFRGKATLTADISSSTAYMHLNSLTSEDSAVYFCTRPYSFGSSYDYFGYWGQGTTLTVSS VL: DIQMNQSPSSLSASLGDTITITCHASQNINVWLNWYQQKPGNIPKLLIYKASKLHTGVSSSFSGSGSGTGFTLTISSLQPEDIGTYYCQQGQSYPYTFGGGTKLEIK | –
6 | 0.22 | 14.1 | -2 | 3 | -2 | 95 | 14.9 | 0.11 | 88.8 | 134 | no binding | 0.12 | 102 | 0 | 1.38 | 0.000182 | 140000 | – | ACI-8016-2629E8D1-AB1 (antibody, V domains shown, also called ACI-8016-2629E8D1-AB1_rmG2a_01) VH: QVQLQQSDAELVKPGGSVKISCKVSGYTFTDHTIHWMKQRPEQGLEWIGNIYPGDGSTMYNEKFKGKATLTADKSSSTAYMHLNSLTSEDSAVYFCARPYYFGSASYYFGYWGQGTTLTVSS VL: DIQMNQSPSSLSASLGDTITITCHASQNINVWLNWYQQKPGNIPKLLIYKASNLHTGVPSRFSGSGSGIGFTLTISSLQPEDIATYYCQQGQSYPLTFGGGTKLEIK | –
